The target in one data set is Cep3;Ctf13;Skp1;Ndc10 (Saccharomyces cerevisiae;Saccharomyces …, UniProt P40969;P35203;P52286;P32504 1-608;1-478;1-194;1-956, |||). Description: cryo-EM.
The data set “cryo-EM structure” concerns the molecule itself. Kind of data set: cryo-EM structure.

Consider two molecules from publication PMC6292502 (Nature structural & molecular biology, 2018).

Cep3;Ctf13;Skp1;Ndc10, sequence (P40969 whole entry, chain 1 of 3): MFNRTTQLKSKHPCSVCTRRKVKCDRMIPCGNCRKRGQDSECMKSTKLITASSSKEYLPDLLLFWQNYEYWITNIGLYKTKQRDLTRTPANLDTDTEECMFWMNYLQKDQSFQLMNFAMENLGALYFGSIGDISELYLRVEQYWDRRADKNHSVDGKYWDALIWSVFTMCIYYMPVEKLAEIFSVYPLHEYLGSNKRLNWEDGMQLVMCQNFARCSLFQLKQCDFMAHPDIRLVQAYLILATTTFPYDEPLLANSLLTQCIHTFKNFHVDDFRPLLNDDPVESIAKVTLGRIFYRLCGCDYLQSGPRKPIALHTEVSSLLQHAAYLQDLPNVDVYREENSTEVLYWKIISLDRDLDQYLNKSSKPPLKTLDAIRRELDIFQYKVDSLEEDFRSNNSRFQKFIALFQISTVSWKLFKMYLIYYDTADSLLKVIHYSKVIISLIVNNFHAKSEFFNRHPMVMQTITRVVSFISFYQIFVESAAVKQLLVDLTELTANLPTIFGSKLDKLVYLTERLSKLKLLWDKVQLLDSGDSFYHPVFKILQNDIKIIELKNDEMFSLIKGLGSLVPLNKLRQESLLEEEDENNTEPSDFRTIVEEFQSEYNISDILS
Cep3;Ctf13;Skp1;Ndc10, sequence (P35203 whole entry, chain 2 of 3): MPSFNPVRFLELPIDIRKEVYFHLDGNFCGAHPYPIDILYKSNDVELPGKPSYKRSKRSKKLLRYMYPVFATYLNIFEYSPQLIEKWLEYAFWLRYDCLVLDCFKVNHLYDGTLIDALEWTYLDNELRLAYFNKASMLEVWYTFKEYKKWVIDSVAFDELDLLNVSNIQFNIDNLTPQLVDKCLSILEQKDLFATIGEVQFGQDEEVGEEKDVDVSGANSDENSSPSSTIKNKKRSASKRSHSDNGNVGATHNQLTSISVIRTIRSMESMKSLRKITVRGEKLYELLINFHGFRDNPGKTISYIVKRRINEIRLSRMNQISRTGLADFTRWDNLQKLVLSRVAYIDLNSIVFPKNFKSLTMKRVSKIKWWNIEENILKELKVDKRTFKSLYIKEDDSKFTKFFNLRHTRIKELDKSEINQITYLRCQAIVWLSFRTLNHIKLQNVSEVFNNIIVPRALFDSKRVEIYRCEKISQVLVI
Cep3;Ctf13;Skp1;Ndc10, sequence (P52286 whole entry, chain 3 of 3): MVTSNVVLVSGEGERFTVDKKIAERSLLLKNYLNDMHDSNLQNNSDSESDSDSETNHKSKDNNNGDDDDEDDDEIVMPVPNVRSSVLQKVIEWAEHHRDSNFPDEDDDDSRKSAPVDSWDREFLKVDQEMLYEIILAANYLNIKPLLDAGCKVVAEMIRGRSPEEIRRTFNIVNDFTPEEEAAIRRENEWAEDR

B1: CEN3 DNA (147 bp CEN3) (dsDNA)
DNA 1: ATCAAATAGTACAAATAAGTCACATGATGATATTTGATTTTATTATATTTTTAAAAAAAGTAAAAAATAAAAAGTAGTTTATTTTTAAAAAATAAAATTTAAAATATTAGTGTATTTGATTTCCGAAAGTTAAAAAAGAAATAGTAAGAAGAT
DNA 2: ATCTTCTTACTATTTCTTTTTTAACTTTCGGAAATCAAATACACTAATATTTTAAATTTTATTTTTTAAAAATAAACTACTTTTTATTTTTTACTTTTTTTAAAAATATAATAAAATCAAATATCATCATGTGACTTATTTGTACTATTTGAT
Consider B1, for which the binding result with Cep3;Ctf13;Skp1;Ndc10 is “binds”.

B2: Ndc10 (natural protein)
chain: MRSSILFLLKLMKIMDVQQQQEAMSSEDRFQELVDSLKPRTAHQYKTYYTKYIQWCQLNQIIPTPEDNSVNSVPYKDLPISAELIHWFLLDTLITDDKPGEKREETEDLDEEEENSFKIATLKKIIGSLNFLSKLCKVHENPNANIDTKYLESVTKLHTHWIDSQKAITTNETNNTNTQVLCPPLLKVSLNLWNPETNHLSEKFFKTCSEKLRFLVDFQLRSYLNLSFEERSKIRFGSLKLGKRDRDAIIYHKVTHSAEKKDTPGHHQLLALLPQDCPFICPQTTLAAYLYLRFYGIPSVSKGDGFPNLNADENGSLLQDIPILRGKSLTTYPREETFSNYYTTVFRYCHLPYKRREYFNKCNLVYPTWDEDTFRTFFNEENHGNWLEQPEAFAFPDKIPFDFKKIMNFKSPYTSYSTNAKKDPFPPPKDLLVQIFPEIDEYKRHDYEGLSQNSRDFLDLMEVLRERFLSNLPWIYKFFPNHDIFQDPIFGNSDFQSYFNDKTIHSKGSPILSFDILPGFNKIYKNKTNFYSLLIERPSQLTFASSHNPDTHPTQKQESEGPLQMSQLDTTQLNELLKQQSFEYVQFQTLSNFQILLSVFNKIFEKLEMKKSSRGYILHQLNLFKITLDERIKKSKIDDADKFIRDNQPIKKEENIVNEDGPNTSRRTKRPKQIRLLSIADSSDESSTEDSNVFKKDGESIEDGAYGENEDENDSEMQEQLKSMINELINSKISTFLRDQMDQFELKINALLDKILEEKVTRIIEQKLGSHTGKFSTLKRPQLYMTEEHNVGFDMEVPKKLRTSGKYAETVKDNDDHQAMSTTASPSPEQDQEAKSYTDEQEFMLDKSIDSIEGIILEWFTPNAKYANQCVHSMNKSGNKSWRANCEALYKERKSIVEFYIYLVNHESLDRYKAVDICEKLRDQNEGSFSRLAKFLRKWRHDHQNSFDGLLVYLSN
B2: the binding result in “cryo-EM structure” was “binds”.
